Source: the DeepSol protein solubility set

assay: soluble on expression in E. coli; label from the status in PepcDB or PDB records

Row | Sequence | soluble on expression in E. coli
1 | MAHHHHHHMVKVKTISRSHLEWTKDRNGEVPRVNRNFDTKYNPMAKQTEFTRAIRAAKLDRMFAKPFVGALSGHHDTIQSVAVDYTSLSTVVSGAFDGGIIVWDVFTKRPKAIVDAHRHSVDGLVLSTDGVACFSASRDKVVKMWDLDFPSDDSKVEPLAEYLGEFPFSSIDHHFHKSIFVTSSDAVHLWDVNRTQPLQRFSWGDDTVSCCQFNKVETELVACCMSDRGVFIYDTRTKASHSKIIMEMCCTSVAWNPMDPNTFVTGSDDRNCYLFDMRVPGRPKSVFQGHINGITSVDFCPTGKKFVAGSLDATLRMWDIHQTTKSNSIEMYHTKRMAKVFSVKWSPDSSYIYSGSEDAILRVWKADASKPVRPLRGPERSSFNYMRSLKDRYSGFVEVRRIANQRNTPKAISRAQLRGKKAEKREFVKEASRRKHDDIKPLAQRKVYQSLN | not soluble
2 | MSPENPFLNHEKKEQERQAKRDAVLLAAVKIFNEQGFHSTSLDDVAKSLGISKPTIYHYLGNKEQVLLTCVEIGLQQLIEAAKDVEKQSISGFEKLRRFLFLYGCRNLDDFGRCVILTHDDALSKEGLVKFKALKRVVHEALLNIIRDAQLDQSINAEHDPKILAATLTGAINWSAKWYNPNGVLSKEETIQKMVDILTYGFEKK | not soluble
3 | MAHHHHHHMLSIRKCNIYDLLSMQQCNSINLPENYNLRYYFYHALSWPYLSQIAEDVNGKVCGYSLGKLEEDNEYKGHLTSVAVLKTYRKLKLAFYLILQTHQHLKDIYRANNICLHVRVSNNAALNLYYNLLNYKVNGIETQYYGNKENAYLMEHVFAR | not soluble
4 | MDQKGILRFHEELASLVLKMRSKGIDDVRFFTALEKIPRQQFVSSPWFKSAYDNKVIPIECGEYIERLEEQLLILYALSLKKKHRVLEIGTGSGFCTAFMACLSDRVITVDRYKTLVDLARQKFQTLGIENIVVRQIDGSRIITGFGSFDRILIWPSRSDEPKEFLELLTENGILIQAIGPDEGVQTITRYTKIASRFECLEMFQVRYQPFIEGIAETL | not soluble
5 | MSTYQAATIVAAPNEFRVPFPPFVQISKVQFQREAGSRLLAASGWDGTCRVYEVGKLGDISEKLVFTHGKPLLTCTFAGYNKVAFGGVDHNVKLADIETGNGTQLGSHALAVRCMEFNPMSSLIVSGGWDSSVKLWDARSYGNGAIESVNVSSSVYAMDVLKHTILVGTKDRKIFMYDSRKLREPLQVRDSPLKYQTRAVQFFPTGEAFVVSSIEGRVAVEYVDQSGEEMMKRKYAFKCHREKDTDGTELIHPVHTVAFHPKYGTFATGGADGIVNIWDPFNRKRIIQLHKFETSISSLSFNEDGSQLAIATSYQYEKEIDPSPLPNNSITIRHITDPESRPK | not soluble
6 | MPPAKTKPKFPLCRLPSESVTNVLKIMKLSEIFNLSETSLKARSIVELAMQTIPSHLDLQGFPSKNYKLTVENDGQKVQVQFPHATDALTNFKQKLFRICKTFQIKTASVYFSCPVEAHIIELLGFIKKRKVQFQDFSIKGSVTEQNFKFFMTIGAQRFHLDMSETQPVTEVFALLKIQEVVLQNAAISSQMLNKVLKAWKTTSRLKKFRVIKNWKMDTSVVFQGLHVKQKSRSDTKKEYEIDLDGGGKATCCFKFEKGSSTNGFEFIVIN | not soluble
7 | MENRKLAVLIDADNAQSSLIAELLAEVAKYGTAIVKRAYGDWTTTQLKGWKEVLHQYAISPIQQFAYTKGKNSTDSALIIDAMDLLYTGNFDGFCLVSSDSDFTRLATRLREGGLTVIGLGEQSKTPRPFIAACDKFVFTEILRPAPPAKPKPETAATADKPKARSSRTRAKAAPHKEKHPLQDMFTSAIEAVARDSGWAELSAVGSYLAKNDPSFDPRNWGHGRLSQMVKKLDFLTVQESRNGSKLHSEIRLRHDGEAAVAEPAAPVETPQPSPSEEAAPPPRKKRSPRKKISPAGLEHHHHHH | soluble
8 | MPQILVDADACPVKAEIKQVAKEFQLEVTFVASFNHYSVNTNGENWIFVDTGKESADMRMMNLAKKGDIIVTQDIGLASILLAKGTFVFSNRGELYREEEMSLMLDIRYRHAKERQQGKYSKGPKAMSDQDRSLFKDRLTTFLQNKLEHHHHHH | soluble
9 | MAISLQKGQRISLSKEAPGLSKMMCGLGWDVAKRSGGGFFSNFGGGGQNYDLDASVICLDANGKLTAKENIIYFGNLQHLSGAITHTGDNLTGAGDGDDEVIIVDLPRIPAQIVKLVFVVNIYDCIARKQDFSQIENAFVRLVNAANNKELARYNLSGKEYLGMTGMVLAEVYRHNDDWKLAAIGNGVNVNGLGELAGSYS | not soluble
10 | MNKLLPTSTAGSLPKPSWLAQPEKLWSPWKLQDEELTEGKQDALRLSLQEQQHAGIDIVSDGEQTRQHFVTTFIEHLSGVDFEKRETVRIRNRYDASVPTVVGAVSRPKPVFVDDAKFLRQQTRQPIKWALPGPMTMIDTLFDAHYKSREKLAWEFAKILNQEAKELEAAGVDIIQFDEPAFNVFFDEVNDWGVATLERAIEGLNCETAVHICYGYGIKANTDWKQTLGSEWRQYEESFPKLQASTIDIVSLECHNSHVPIDLIELVRGKKVMVGAIDVASNTIETPQEVADTLRKALRFVDADKLYPSTNCGMAPLARHVARGKLSALSAGADIIRAELSAQLEHHHHHH | not soluble
11 | MPREYEFAEKILFTEEEIRTRIKEVAKRIADDYKGKGLRPYVNPLVLISVLRGSFMFTADLCRALCDFNVPVRMEFICVSSYGEGLTSSGQVRMLLDTRHSIEGHHVLIVEDIVDTALTLNYLYHMYFTRRPASLKTVVLLDKREGRRVPFSADYVVANIPNAFVIGYGLDYDDTYRELRDIVVLRPEVYAEREAARQKKQRAIGSADTDRDAKREFHSKY | soluble
12 | MPAILETNPIAIRACILYEVRQKRPIFESFKNFCNAFGNDFMEYREFERWFYRFYHGNEDLDYDMSREPKTASLSELPIEILFKIVENLNFLDRLLLRNVSPCFRSIAEDHVNEVTNISVTSIPNHVHVCFYHESDYTDIICKRVDDDCVITKMSQYEDSKDWKIEGVSHVTVALNYLSRVLKSPKLKLEKLRLDFLEHNKEDTQCMEELLTVLENSEPHVLNIEFEGLNFHETSSVLKNLKNVEEIQLSMYSIQELSGIEKLVELEQWKTAKTLDISSHEDIEMDIKDLLHFQSIDVRLKSFSVQDAVKVKETLELRTSDFRSGTFRVLNTDTRKIGKVFNPKYTDAANNTFNFKTKNSSFEITMCSKEIYVKRKL | not soluble
13 | MGSDKIHHHHHHMKLETIDYRSPDAAAQFVQSLRDTGFGVLSNHPIQQSLVEAIYKDWYEFFQSGAKEEFRFNPETQDGFFPADVSETAKGHSVKDIKEYYHVYPWGRIPESLRANILAYYDHANQLAAELLSWVEAHSPDEVKALFTEPLPNMIDGSHKTLLRVLHYPPMKGDEEPGAIRAAAHEDINLLTVLPAANEPGLQVKAKDGTWLDVPSDFGNIIINIGDMLQEASGGYFPSTSHRVINPEGMDKTKSRISLPLFLHPRPDVVLSERYTADSYLMERLRELGVI | not soluble
14 | MGSDKIHHHHHHMSSKAEKDIKWGIAPIGWRNDDIPSIGKDNNLQQLLSDIVVAGFQGTEVGGFFPGPEKLNYELKLRNLEIAGQWFSSYIIRDGIEKASEAFEKHCQYLKAINAPVAVVSEQTYTIQRSDTANIFKDKPYFTDKEWDEVCKGLNHYGEIAAKYGLKVAYHHHMGTGIQTKEETDRLMANTDPKLVGLLYDTGHIAVSDGDYMALLNAHIDRVVHVHFKDVRRSKEEECRAKGLTFQGSFLNGMFTVPGDGDLDFKPVYDKLIANNYKGWIVVEAEQDPSKANPLEMAQIAHRYIKQHLIEN | not soluble
15 | MAQRGRKPKPTALKILEGNPGKRPLNEDEPKPEKKAPKCPGWLDAEAKKEWRRMSKQLEAMGILTEIDMAAFAGYCQAYARWKEAEEFITKHGTIVKTPSGYWQQVPQVSIAQTYLKIMNRFCEQFGLTPSARSRIVTDNINDEEDPMELILYKGGSKSV | soluble
16 | VTEVEQKLQIVHQTLSMLDSHGFENILQEMLQSITLKTGELLGADRTTIFLLDEEKQELWSIVAAGEGDRSLEIRIPADKGIAGEVATFKQVVNIPFDFYHDPRSIFAQKQEKITGYRTYTMLALPLLSEQGRLVAVVQLLNKLKPYSPPDALLAERIDNQGFTSADEQLFQEFAPSIRLILESSRSFYIATQKQRAAAAMMKAVKSLSQSSLDLEDTLKRVMDEAKELMNADRSTLWLIDRDRHELWTKITQDNGSTKELRVPIGKGFAGIVAASGQKLNIPFDLYDHPDSATAKQIDQQNGYRTCSLLCMPVFNGDQELIGVTQLVNKKKTGEFPPYNPETWPIAPECFQASFDRNDEEFMEAFNIQAGVALQNAQLFATVKQQEQGSRSHHHHHH | soluble
17 | MGSDKIHHHHHHMNMAHDEQRWLSPRLQKAAALCNQAPAASESPLWLGIDLGTCDVVSMVVDRDGQPVAVCLDWADVVRDGIVWDFFGAVTLVRRHLATLEQQLGCRFTHAATSFPPGTDPRISINVLESAGLEISHVLDEPTAVADLLQLDNAGVVDIGGGTTGIAIVKQGRVTYSADEATGGHHISLTLAGNRGIGLEEAEQYKRSHAGEIWPVVKPVYEKMAEIVARHIAGQGIVDLWLAGGACMQPGVHELFRQRFPALPVHLPQHSLFMTPLAIANSGREKAEGMYAS | not soluble
18 | MGHHHHHHSHMEELLPDGQIWANMDPEERMLAAATAFTHICAGQGEGDVRREAQSIQYDPYSKASVAPGKRPALPVQLQYPHVESNVPSETVSEASQRLRKPVMKRKVLRRKPDGEVLVTDESIISESESGTENDQDLWDLRQRLMNVQFQEDKESSFDVSQKFNLPHEYQGISQDQLICSLQREGMGSPAYEQDLIVASRPKSFILPKLDQLSRNRGKTDRVARYFEYKRDWDSIRLPGEDHRKELRWGVREQMLCRAEPQSKPQHIYVPNNYLVPTEKKRSALRWGVRCDLANGVIPRKLPFPLSPS | not soluble
19 | MKAVMLLSGGIDSSTLLYYLLDGGYEVHALTFFYGQKHSKEIESAEKVAKAAKVRHLKVDISTIHDLISYGALTGEEEVPKAFYSEEVQRRTIVPNRNMILLSIAAGYAVKIGAKEVHYAAHLSDYSIYPDCRKEFVKALDTAVYLANIWTPVEVRAPFVDMTKADIVRLGLKLGVPYELTWSCYEGGDRPCLSCGTCLERTEAFLANGVKDPLLSDEEWKNAVKIYEEMRARNEGKSD | not soluble
20 | MPDKKREVSLSHRLQEVASFVPKGARLLDVGSDHAYLPIYLLEQGLIDFAVAGEIIKGPYESAVANVSESELSGQIAVRLADGLAALNDNDDIDLITICGMGGRLIADILAAGSDKLNSVKQLILQPNNCEDDLRSWLVANDFMIKAEKMVKDRHKYYEILVVEKGKITLSDKDLRFGPFLRQERSSIFKERWRKELAKLELALTKVPAKKKADNMFLSTKIEQIKEVLYES | not soluble
21 | MSLNGLNSECHFYQTDGDIVVRCAQINDAERLSQYFVDNRSHLIEWEPRREAEFFTESGWLQRLIKLNELHKMKLGYYLLILDAQNDAMLGTISFSNIIRFPFHACNVGYSLAYEAQGKGIMTRALTMACQYMFSEHNMHRIMASYIPHNKRSENVLKRVGFVLEGHAKDYLLINGKWEDHNLTSLINPNWKEEGHHHHHH | soluble
